From the supplement of paper PMC10724198
± gives the standard deviation of the averaged measurements.
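Also: PSI is a weighted mean of sequencing reads over stability bins, variants kept only with over 10 reads, mCherry proximal and sfGFP distal, peptide attached via GGGS linker.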

What follows are sequences tested on Saccharomyces cerevisiae (assay: protein stability index of tFT-peptide fusion (C-terminal peptide) (PSI (0-1 scale)); higher = more stable (slower turnover)). Settings: genetic background: wild type; temperature: 37 C.
Procedure: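 MPS profiling in S. cerevisiae of the tFT-X12 degron library: putative degron peptides plus stable controls, 12 aa, fused to the C-terminus of a sfGFP-mCherry timer. Cells are FACS-sorted into 8 mCherry/sfGFP bins and deep-sequenced. PSI runs from 0 (unstable) to 1 (stable). Backgrounds are wild type, das1Δ and doa10Δ at 30 °C, and wild type, das1Δ, cdc34-1 and cdc53-1 at 37 °C; 2-3 technical replicates each.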
KIILMCYTLITL gave a protein stability index of 0.413 ± 0.04. In the case of KIKQIKINNKIN, the protein stability index is reported as 0.145 ± 0.04. For KKIKKYTRKLKI, the protein stability index was 0.63 ± 0.0069. KKKKRVKIQKKN gave a protein stability index of 0.446 ± 0.009. KKNLTHSIRVQA gave a protein stability index of 0.585 ± 0.015. For KMKGLINKRKES, the protein stability index was 0.233 ± 0.027. For KNVFLIRGRKNC, the protein stability index was 0.41 ± 0.017. For KSRLFCFVYFLL, the protein stability index was 0.17 ± 0.0063. KTDVYPVSFFTC showed a protein stability index of 0.133 ± 0.013. With KVLLYWRHAQRQ the protein stability index was 0.611 ± 0.013. Work on KYKLYGIMIIEG yielded a protein stability index of 0.462 ± 0.04. LAGLVRFWGCVG gave a protein stability index of 0.236 ± 0.0026. LASSCYRHLLVV was tested, and the protein stability index was 0.078 ± 0.044. For LCCTLFFCYSYH, the protein stability index was 0.617 ± 0.098. LCSCMWISAIAI was tested, and the protein stability index was 0.533 ± 0.039. With LCSLPIVCCFFL the protein stability index was 0.534 ± 0.016. Sequence LCVGFISFCFCL has a protein stability index of 0.512 ± 0.017. LCYFFFISLFLG was tested, and the protein stability index was 0.403 ± 0.0052. LFGFILLGVSCC showed a protein stability index of 0.193 ± 0.015. With LFLIFFSFLFLC the protein stability index was 0.141 ± 0.02. LFLIYCFAFSIG gave a protein stability index of 0.366 ± 0.014. LFNRCCTILVVW showed a protein stability index of 0.316 ± 0.021. In the case of LFSVFSLVLFIF, the protein stability index is reported as 0.454 ± 0.0073. LFVSLSFVVFLP showed a protein stability index of 0.391 ± 0.0072. In the case of LFVVFVLLTFFV, the protein stability index is reported as 0.29 ± 0.011. LGSCSLIYRKFS showed a protein stability index of 0.172 ± 0.021. LHLSSFVILLEL gave a protein stability index of 0.437 ± 0.021. With LIEMVTTRYRLC the protein stability index was 0.189 ± 0.018. Work on LKTKKKKTNTQK yielded a protein stability index of 0.683 ± 0.0086. LLCLLLVPQPHR gave a protein stability index of 0.6376 ± 0.003. For LLFCFSVILFTC, the protein stability index was 0.0808 ± 0.0077. For LLMCCLPFLWVF, the protein stability index was 0.316 ± 0.0053. Sequence LLRFFPLLLFSF has a protein stability index of 0.159 ± 0.013. Work on LLSPFLLMLLFL yielded a protein stability index of 0.317 ± 0.013. With LLTGRFRILLVV the protein stability index was 0.0674 ± 0.026. LLVRYRRALVLL was tested, and the protein stability index was 0.131 ± 0.033. Work on LLVRYYLFYVLV yielded a protein stability index of 0.391 ± 0.0082. LMLISFLFLSLL was tested, and the protein stability index was 0.48698 ± 5.5e-05. With LPALPFPIPTFA the protein stability index was 0.179 ± 0.01. LPLSPPPLPSSR showed a protein stability index of 0.675 ± 0.018. With LPSLPPPPPPPP the protein stability index was 0.687 ± 0.0092. With LPVSLWLVCSFF the protein stability index was 0.5283 ± 0.0021. Sequence LQLGFCFVAQFI has a protein stability index of 0.607 ± 0.02. LQNCRVSVLLGW was tested, and the protein stability index was 0.4536 ± 0.0025. With LRFYLLTPPSPA the protein stability index was 0.586 ± 0.029. LRKARLFLKAKC showed a protein stability index of 0.384 ± 0.0047. In the case of LRLCMVFAWFLT, the protein stability index is reported as 0.3924 ± 0.0028. Work on LRLEFRTNWFLQ yielded a protein stability index of 0.402 ± 0.0072. LRVVLVEWMCVV was tested, and the protein stability index was 0.358 ± 0.011. LRVVVGLCMCVL gave a protein stability index of 0.4884 ± 0.0035. LSCCIVLLIIFV gave a protein stability index of 0.341 ± 0.025. For LSFLLLLGCFGS, the protein stability index was 0.589 ± 0.018. Sequence LSGVLFSLIRFY has a protein stability index of 0.495 ± 0.015. LSLWLFRILSVR was tested, and the protein stability index was 0.4906 ± 0.0043. LSPPLRHRLTPP was tested, and the protein stability index was 0.6731 ± 0.0065. In the case of LSVRLYRTVFLV, the protein stability index is reported as 0.0864 ± 0.023. LSVYGFYKMPAG gave a protein stability index of 0.5368 ± 0.0015. LVAGFVFIFFYR showed a protein stability index of 0.46 ± 0.0078. LVCLTPPPSPFS was tested, and the protein stability index was 0.486 ± 0.021. Work on LVDPFAALRHVV yielded a protein stability index of 0.3825 ± 0.0015. Sequence LVGWSWRGWFVV has a protein stability index of 0.112 ± 0.012. Sequence LVIFSLLFSFSH has a protein stability index of 0.3837 ± 0.00069. Sequence LVLVVFCPLWFW has a protein stability index of 0.56 ± 0.024. LVPLSLLLCFFV gave a protein stability index of 0.354 ± 0.0088. In the case of LWAPFWVSRVTA, the protein stability index is reported as 0.42 ± 0.0086. For LWGLVWGGVWGV, the protein stability index was 0.705 ± 0.0096. LYRIETLFMRAQ was tested, and the protein stability index was 0.354 ± 0.019. LYVQSVCFSVPR gave a protein stability index of 0.486 ± 0.0089. Work on MALAVRVVLCGA yielded a protein stability index of 0.168 ± 0.0051. MALAVRVVRCGA gave a protein stability index of 0.379 ± 0.033. In the case of MGVTVRVEGIRA, the protein stability index is reported as 0.537 ± 0.015. In the case of MLIAISASAARF, the protein stability index is reported as 0.498 ± 0.0095. For MLLFVSCCVFLF, the protein stability index was 0.219 ± 0.019. MMYTLSMLLRLR was tested, and the protein stability index was 0.546 ± 0.0085. Work on MPQSLKKMVFLA yielded a protein stability index of 0.0875 ± 0.024. Work on MRLQLTFSILLF yielded a protein stability index of 0.3598 ± 0.0024. MSRALSVLVVVA was tested, and the protein stability index was 0.287 ± 0.029. In the case of MTLYSFSSALLA, the protein stability index is reported as 0.423 ± 0.0074.

Each sequence was assayed on Saccharomyces cerevisiae in the same assay as above. Settings: genetic background: wild type; temperature: 30 C.
Sequence KIILMCYTLITL has a protein stability index of 0.264 ± 0.015. KIKQIKINNKIN gave a protein stability index of 0.157 ± 0.0073. KKIKKYTRKLKI was tested, and the protein stability index was 0.455 ± 0.048. For KKKKRVKIQKKN, the protein stability index was 0.404 ± 0.03. In the case of KKNLTHSIRVQA, the protein stability index is reported as 0.505 ± 0.025. Work on KMKGLINKRKES yielded a protein stability index of 0.219 ± 0.0027. KNVFLIRGRKNC was tested, and the protein stability index was 0.356 ± 0.098. Sequence KSRLFCFVYFLL has a protein stability index of 0.167 ± 0.013. KTDVYPVSFFTC showed a protein stability index of 0.184 ± 0.028. In the case of KVLLYWRHAQRQ, the protein stability index is reported as 0.548 ± 0.11. Sequence KYKLYGIMIIEG has a protein stability index of 0.329 ± 0.078. LAGLVRFWGCVG was tested, and the protein stability index was 0.341 ± 0.0037. With LASSCYRHLLVV the protein stability index was 0.137 ± 0.002. Sequence LCCTLFFCYSYH has a protein stability index of 0.424 ± 0.013. LCSCMWISAIAI showed a protein stability index of 0.445 ± 0.0055. LCSLPIVCCFFL showed a protein stability index of 0.489 ± 0.029. In the case of LCVGFISFCFCL, the protein stability index is reported as 0.47934 ± 0.00045. LCYFFFISLFLG was tested, and the protein stability index was 0.328 ± 0.0056. For LFGFILLGVSCC, the protein stability index was 0.211 ± 0.029. LFLIFFSFLFLC gave a protein stability index of 0.166 ± 0.028. LFLIYCFAFSIG gave a protein stability index of 0.367 ± 0.049. In the case of LFNRCCTILVVW, the protein stability index is reported as 0.299 ± 0.016. LFSVFSLVLFIF showed a protein stability index of 0.427 ± 0.091. In the case of LFVSLSFVVFLP, the protein stability index is reported as 0.34 ± 0.077. Sequence LFVVFVLLTFFV has a protein stability index of 0.279 ± 0.089. LGSCSLIYRKFS showed a protein stability index of 0.204 ± 0.0059. Work on LHLSSFVILLEL yielded a protein stability index of 0.421 ± 0.021. In the case of LIEMVTTRYRLC, the protein stability index is reported as 0.242 ± 0.044. In the case of LKTKKKKTNTQK, the protein stability index is reported as 0.495 ± 0.037. For LLCLLLVPQPHR, the protein stability index was 0.0268 ± 0.019. Sequence LLFCFSVILFTC has a protein stability index of 0.147 ± 0.018. Work on LLMCCLPFLWVF yielded a protein stability index of 0.306 ± 0.021. For LLRFFPLLLFSF, the protein stability index was 0.122 ± 0.083. LLSPFLLMLLFL showed a protein stability index of 0.28 ± 0.004. LLTGRFRILLVV gave a protein stability index of 0.0704 ± 0.021. For LLVRYRRALVLL, the protein stability index was 0.142 ± 0.051. For LLVRYYLFYVLV, the protein stability index was 0.351 ± 0.013. LMLISFLFLSLL gave a protein stability index of 0.466 ± 0.056. In the case of LPALPFPIPTFA, the protein stability index is reported as 0.243 ± 0.053. LPLSPPPLPSSR gave a protein stability index of 0.432 ± 0.032. With LPSLPPPPPPPP the protein stability index was 0.498 ± 0.039. In the case of LPVSLWLVCSFF, the protein stability index is reported as 0.324 ± 0.0038. With LQLGFCFVAQFI the protein stability index was 0.509 ± 0.03. Sequence LQNCRVSVLLGW has a protein stability index of 0.367 ± 0.033. In the case of LRFYLLTPPSPA, the protein stability index is reported as 0.54 ± 0.061. LRKARLFLKAKC was tested, and the protein stability index was 0.323 ± 0.03. Work on LRLCMVFAWFLT yielded a protein stability index of 0.337 ± 0.023. LRLEFRTNWFLQ was tested, and the protein stability index was 0.2 ± 0.0067. LRVVLVEWMCVV was tested, and the protein stability index was 0.33 ± 0.03. Sequence LRVVVGLCMCVL has a protein stability index of 0.453 ± 0.015. In the case of LSCCIVLLIIFV, the protein stability index is reported as 0.338 ± 0.055. Work on LSFLLLLGCFGS yielded a protein stability index of 0.466 ± 0.076. Sequence LSGVLFSLIRFY has a protein stability index of 0.383 ± 0.036. LSLWLFRILSVR showed a protein stability index of 0.4439 ± 0.0026. LSPPLRHRLTPP showed a protein stability index of 0.715 ± 0.047. In the case of LSVRLYRTVFLV, the protein stability index is reported as 0.148 ± 0.02. Sequence LSVYGFYKMPAG has a protein stability index of 0.502 ± 0.031. Sequence LVAGFVFIFFYR has a protein stability index of 0.372 ± 0.059. Work on LVCLTPPPSPFS yielded a protein stability index of 0.412 ± 0.033. LVDPFAALRHVV showed a protein stability index of 0.246 ± 0.0088. Work on LVGWSWRGWFVV yielded a protein stability index of 0.139 ± 0.025. Work on LVIFSLLFSFSH yielded a protein stability index of 0.32 ± 0.028. LVLVVFCPLWFW gave a protein stability index of 0.43567 ± 0.00031. LVPLSLLLCFFV was tested, and the protein stability index was 0.3058 ± 0.0028. LWAPFWVSRVTA gave a protein stability index of 0.347 ± 0.012. Work on LWGLVWGGVWGV yielded a protein stability index of 0.439 ± 0.015. LYRIETLFMRAQ gave a protein stability index of 0.383 ± 0.021. LYVQSVCFSVPR showed a protein stability index of 0.422 ± 0.012. MALAVRVVLCGA was tested, and the protein stability index was 0.236 ± 0.034. Work on MALAVRVVRCGA yielded a protein stability index of 0.353 ± 0.024. MGVTVRVEGIRA was tested, and the protein stability index was 0.369 ± 0.084. For MLIAISASAARF, the protein stability index was 0.4184 ± 0.00049. Sequence MLLFVSCCVFLF has a protein stability index of 0.206 ± 0.063. MMYTLSMLLRLR was tested, and the protein stability index was 0.513 ± 0.047. For MPQSLKKMVFLA, the protein stability index was 0.1516 ± 0.0014. MRLQLTFSILLF gave a protein stability index of 0.389 ± 0.019. MSRALSVLVVVA showed a protein stability index of 0.312 ± 0.012. For MTLYSFSSALLA, the protein stability index was 0.3535 ± 0.0027.
